# Data reported in patent publication US20120316071A1 (published 2012).
# T1: rHuman Erythropoietin R/Fc Chimera, CF (R&D Systems Cat#963-ER) (human, UniProt P19235 25-250)
# T1 construct: Bought recombinant protein; also called EPO R; EPO R/Fc; Fc part of the bought chimera not given
# T1 sequence (looked up): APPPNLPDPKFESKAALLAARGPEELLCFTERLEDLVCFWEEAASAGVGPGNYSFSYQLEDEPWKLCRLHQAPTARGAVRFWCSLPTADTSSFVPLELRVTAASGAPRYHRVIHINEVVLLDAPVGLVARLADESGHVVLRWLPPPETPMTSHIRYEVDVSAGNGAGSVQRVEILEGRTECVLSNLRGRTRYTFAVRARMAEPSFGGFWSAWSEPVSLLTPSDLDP
# How the values were obtained:
# [1] = target: T2, rHuman IGF-1 sR, (IGF-1 sR), CF (R&D Systems Cat#391-GR) (human, UniProt P08069 31-932); test: ECL multispot (MSD) assay, antigen spotted on plate; blank spot of this row 327
# T2 construct: Bought recombinant soluble receptor; also called insulin-like growth factor-1 soluble receptor
# [2] = target: T1, rHuman Erythropoietin R/Fc Chimera, CF …; test: as above
# [3] = target: T3, rHuman P-Cadherin/Fc Chimera, CF (R&D Systems Cat#861-PC) (human, UniProt P22223 108-654); test: as above
# T3 construct: Bought recombinant protein; Fc part of the bought chimera not given
# [4] = target: T4, rHuman EGF R/Fc Chimera, CF (R&D Systems Cat#344-ER) (human, UniProt P00533 25-645); test: as above
# T4 construct: Bought recombinant protein; also called epidermal growth factor receptor; Fc part of the bought chimera not given
# [5] = target: T5, Recombinant Human DLL4 (R&D Systems Cat#1506-D4/CF) (human, UniProt Q9NR61 27-524); test: as above
# T5 construct: Bought recombinant protein; also called delta-like protein 4; rHuman DLL4
# [6] = target: T6, rHuman HGF R/c-MET/Fc Chimera, CF (R&D Systems Cat#358-MT/CF) (human, UniProt P08581 25-932); test: as above
# T6 construct: Bought recombinant protein; also called HGF R/Fc; hepatocyte growth factor receptor; Fc part of the bought chimera not given
# [7] = target: T7, rHuman Notch-1/Fc Chimera, CF (R&D Systems Cat#3647-TK) (human, UniProt P46531 19-526); test: as above
# T7 construct: Bought recombinant protein; Fc part of the bought chimera not given
# [8] = target: T8, rHuman ErbB2/Fc Chimera, CF (R&D Systems Cat#1129-ER) (human, UniProt P04626 23-652); test: as above
# T8 construct: Bought recombinant protein; also called human epidermal growth factor 2 receptor; Fc part of the bought chimera not given
# [9] = target: T9, rHuman CD44/Fc Chimera, CF (R&D Systems Cat#3660-CD) (human, UniProt P16070 21-220); test: as above
# T9 construct: Bought recombinant protein; Fc part of the bought chimera not given
# [10] = target: T2, rHuman IGF-1 sR, (IGF-1 sR), CF (R&D …); test: ECL multispot (MSD) assay, antigen spotted on plate; blank spot of this row 511
# [11] = target: T1, rHuman Erythropoietin R/Fc Chimera, CF …; test: as above
# [12] = target: T3, rHuman P-Cadherin/Fc Chimera, CF (R&D …); test: as above
# [13] = target: T4, rHuman EGF R/Fc Chimera, CF (R&D …); test: as above
# [14] = target: T5, Recombinant Human DLL4 (R&D Systems …); test: as above
# [15] = target: T6, rHuman HGF R/c-MET/Fc Chimera, CF (R&D …); test: as above
# [16] = target: T7, rHuman Notch-1/Fc Chimera, CF (R&D …); test: as above
# [17] = target: T8, rHuman ErbB2/Fc Chimera, CF (R&D …); test: as above
# [18] = target: T9, rHuman CD44/Fc Chimera, CF (R&D Systems …); test: as above
# [19] = target: T2, rHuman IGF-1 sR, (IGF-1 sR), CF (R&D …); test: ECL multispot (MSD) assay, antigen spotted on plate; blank spot of this row 294
# [20] = target: T1, rHuman Erythropoietin R/Fc Chimera, CF …; test: as above
# [21] = target: T3, rHuman P-Cadherin/Fc Chimera, CF (R&D …); test: as above
# [22] = target: T4, rHuman EGF R/Fc Chimera, CF (R&D …); test: as above
# [23] = target: T5, Recombinant Human DLL4 (R&D Systems …); test: as above
# [24] = target: T6, rHuman HGF R/c-MET/Fc Chimera, CF (R&D …); test: as above
# [25] = target: T7, rHuman Notch-1/Fc Chimera, CF (R&D …); test: as above
# [26] = target: T8, rHuman ErbB2/Fc Chimera, CF (R&D …); test: as above
# [27] = target: T9, rHuman CD44/Fc Chimera, CF (R&D Systems …); test: as above
# [28] = target: T2, rHuman IGF-1 sR, (IGF-1 sR), CF (R&D …); test: ECL multispot (MSD) assay, antigen spotted on plate; blank spot of this row 332
# [29] = target: T1, rHuman Erythropoietin R/Fc Chimera, CF …; test: as above
# [30] = target: T3, rHuman P-Cadherin/Fc Chimera, CF (R&D …); test: as above
# [31] = target: T4, rHuman EGF R/Fc Chimera, CF (R&D …); test: as above
# [32] = target: T5, Recombinant Human DLL4 (R&D Systems …); test: as above
# [33] = target: T6, rHuman HGF R/c-MET/Fc Chimera, CF (R&D …); test: as above
# [34] = target: T7, rHuman Notch-1/Fc Chimera, CF (R&D …); test: as above
# [35] = target: T8, rHuman ErbB2/Fc Chimera, CF (R&D …); test: as above
# [36] = target: T9, rHuman CD44/Fc Chimera, CF (R&D Systems …); test: as above
# T6 sequence (P08581 25-932, change not shown): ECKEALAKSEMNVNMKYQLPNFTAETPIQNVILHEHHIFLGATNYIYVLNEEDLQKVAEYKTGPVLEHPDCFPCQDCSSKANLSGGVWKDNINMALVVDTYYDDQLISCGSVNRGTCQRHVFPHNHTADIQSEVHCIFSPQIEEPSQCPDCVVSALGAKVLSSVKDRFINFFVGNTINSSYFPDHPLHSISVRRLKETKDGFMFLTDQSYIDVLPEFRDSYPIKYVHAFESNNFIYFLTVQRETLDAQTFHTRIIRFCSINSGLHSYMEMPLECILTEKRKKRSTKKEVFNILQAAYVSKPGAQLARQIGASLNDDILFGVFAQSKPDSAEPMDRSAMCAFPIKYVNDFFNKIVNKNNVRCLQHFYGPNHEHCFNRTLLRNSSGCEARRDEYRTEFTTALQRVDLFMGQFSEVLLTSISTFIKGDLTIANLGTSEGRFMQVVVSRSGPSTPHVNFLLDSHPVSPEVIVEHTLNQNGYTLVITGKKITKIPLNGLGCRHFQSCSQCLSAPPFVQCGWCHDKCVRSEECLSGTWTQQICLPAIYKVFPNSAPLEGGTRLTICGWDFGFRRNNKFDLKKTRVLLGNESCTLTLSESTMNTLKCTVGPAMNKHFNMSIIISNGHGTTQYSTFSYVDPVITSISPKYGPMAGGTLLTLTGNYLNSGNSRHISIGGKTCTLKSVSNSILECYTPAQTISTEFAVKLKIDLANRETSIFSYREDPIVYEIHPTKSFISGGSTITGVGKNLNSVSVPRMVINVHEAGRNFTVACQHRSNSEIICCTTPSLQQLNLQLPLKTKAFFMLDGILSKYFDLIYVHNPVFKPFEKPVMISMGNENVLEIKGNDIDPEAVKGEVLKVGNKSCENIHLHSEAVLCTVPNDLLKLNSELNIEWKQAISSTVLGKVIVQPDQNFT
binder,measurement,setting,value
"Fab VH1-46_IGHD6-6*01_IGHJ1*01 S102A/S103P/S104F/H111F (APFF) & L6_IGKJ1*01 S30Q (Fab, V domains shown, Fab made in E. coli: VH cloned into Plasmid A (CH1, His6 and Flag tags), kappa VL into Plasmid C (kappa CL); also called APFF / S30Q) VH: QVQLVQSGAEVKKPGASVKVSCKASGYTFTSYYMHWVRQAPGQGLEWMGIINPSGGSTSYAQKFQGRVTMTRDTSTSTVYMELSSLRSEDTAVYYCAREEYAPFSAEYFQFWGQGTLVTVSS VL: EIVLTQSPATLSLSPGERATLSCRASQSVQSYLAWYQQKPGQAPRLLIYDASNRATGIPARFSGSGSGTDFTLTISSLEPEDFAVYYCQQRSNWPPWTFGQGTKVEIKR",ECL signal,[1],354
same,ECL signal,[2],376
same,ECL signal,[3],393
same,ECL signal,[4],381
same,ECL signal,[5],197000
same,ECL signal,[6],344
same,ECL signal,[7],326
same,ECL signal,[8],340
same,ECL signal,[9],411
"Fab VH1-46_IGHD6-6*01_IGHJ1*01 S102A/S103P/S104F/H111F (APFF) & L6_IGKJ1*01 S31K (Fab, V domains shown, Fab made in E. coli: VH cloned into Plasmid A (CH1, His6 and Flag tags), kappa VL into Plasmid C (kappa CL); also called APFF / S31K) VH: QVQLVQSGAEVKKPGASVKVSCKASGYTFTSYYMHWVRQAPGQGLEWMGIINPSGGSTSYAQKFQGRVTMTRDTSTSTVYMELSSLRSEDTAVYYCAREEYAPFSAEYFQFWGQGTLVTVSS VL: EIVLTQSPATLSLSPGERATLSCRASQSVSKYLAWYQQKPGQAPRLLIYDASNRATGIPARFSGSGSGTDFTLTISSLEPEDFAVYYCQQRSNWPPWTFGQGTKVEIKR",ECL signal,[10],505
same,ECL signal,[11],522
same,ECL signal,[12],471
same,ECL signal,[13],355
same,ECL signal,[14],179000
same,ECL signal,[15],221
same,ECL signal,[16],334
same,ECL signal,[17],262
same,ECL signal,[18],370
"Fab VH1-46_IGHD6-6*01_IGHJ1*01 S102A/S103P/S104F/H111F (APFF) & L6_IGKJ1*01 S31N (Fab, V domains shown, Fab made in E. coli: VH cloned into Plasmid A (CH1, His6 and Flag tags), kappa VL into Plasmid C (kappa CL); also called APFF / S31N) VH: QVQLVQSGAEVKKPGASVKVSCKASGYTFTSYYMHWVRQAPGQGLEWMGIINPSGGSTSYAQKFQGRVTMTRDTSTSTVYMELSSLRSEDTAVYYCAREEYAPFSAEYFQFWGQGTLVTVSS VL: EIVLTQSPATLSLSPGERATLSCRASQSVSNYLAWYQQKPGQAPRLLIYDASNRATGIPARFSGSGSGTDFTLTISSLEPEDFAVYYCQQRSNWPPWTFGQGTKVEIKR",ECL signal,[19],379
same,ECL signal,[20],363
same,ECL signal,[21],342
same,ECL signal,[22],246
same,ECL signal,[23],178000
same,ECL signal,[24],300
same,ECL signal,[25],267
same,ECL signal,[26],197
same,ECL signal,[27],384
"Fab VH1-46_IGHD6-6*01_IGHJ1*01 S102A/S103P/S104F/H111F (APFF) & L6_IGKJ1*01 S31T (Fab, V domains shown, Fab made in E. coli: VH cloned into Plasmid A (CH1, His6 and Flag tags), kappa VL into Plasmid C (kappa CL); also called APFF / S31T) VH: QVQLVQSGAEVKKPGASVKVSCKASGYTFTSYYMHWVRQAPGQGLEWMGIINPSGGSTSYAQKFQGRVTMTRDTSTSTVYMELSSLRSEDTAVYYCAREEYAPFSAEYFQFWGQGTLVTVSS VL: EIVLTQSPATLSLSPGERATLSCRASQSVSTYLAWYQQKPGQAPRLLIYDASNRATGIPARFSGSGSGTDFTLTISSLEPEDFAVYYCQQRSNWPPWTFGQGTKVEIKR",ECL signal,[28],303
same,ECL signal,[29],423
same,ECL signal,[30],332
same,ECL signal,[31],351
same,ECL signal,[32],191000
same,ECL signal,[33],432
same,ECL signal,[34],261
same,ECL signal,[35],285
same,ECL signal,[36],384
